Drawing on US20050202033A1, this text covers Kd and fold increase in affinity over … (SEQ ID NO:368) for 51 molecules.

The target in assay [1] is recombinant human or murine heat shock protein 70 (hsp70) (human or murine) (UniProt P0DMV8). As to the kind of experiment: on hsp70.
Assay [2] has the same target. Briefly: binding inhibition assay (Hill plot) against tritiated … on hsp70.
The target in assay [3] is T1, recombinant human or murine heat shock protein 70 (hsp70) (human or murine), P0DMV8. Briefly: on hsp70.
Assay [4] addresses T1, recombinant human or murine heat shock …. As to the kind of experiment: binding inhibition assay (Hill plot) against tritiated … on hsp70.
Assay [5] shares this target. As to the kind of experiment: binding inhibition assay as in Example 2, on hsp70.
Assay [6] has the same target. Briefly: competition against a labeled reporter peptide on HSP70; Kd calculated from IC50 (Hill plot).
For assay [7] the target is unchanged. Briefly: binding inhibition assay (Hill plot) or Scatchard analysis of the reference on hsp70.

T1 sequence (P0DMV8 whole entry): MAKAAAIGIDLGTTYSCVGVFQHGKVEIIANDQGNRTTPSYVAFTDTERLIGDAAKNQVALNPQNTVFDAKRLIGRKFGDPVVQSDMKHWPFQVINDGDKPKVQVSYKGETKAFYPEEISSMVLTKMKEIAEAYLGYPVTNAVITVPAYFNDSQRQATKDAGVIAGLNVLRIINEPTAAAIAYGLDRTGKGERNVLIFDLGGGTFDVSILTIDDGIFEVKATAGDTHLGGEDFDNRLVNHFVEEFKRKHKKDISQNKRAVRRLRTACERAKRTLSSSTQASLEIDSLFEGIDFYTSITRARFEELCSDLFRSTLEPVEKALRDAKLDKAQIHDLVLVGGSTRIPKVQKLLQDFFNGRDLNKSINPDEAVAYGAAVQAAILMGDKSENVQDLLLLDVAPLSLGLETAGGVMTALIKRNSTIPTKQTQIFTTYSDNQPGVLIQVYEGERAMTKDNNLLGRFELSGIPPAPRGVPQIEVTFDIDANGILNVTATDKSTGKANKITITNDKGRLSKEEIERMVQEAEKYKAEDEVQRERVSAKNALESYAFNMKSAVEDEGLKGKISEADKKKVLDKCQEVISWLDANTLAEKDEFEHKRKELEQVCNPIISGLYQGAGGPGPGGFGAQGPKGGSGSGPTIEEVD
Chain of recombinant human or murine heat shock protein 70 (hsp70) (human or murine) (P0DMV8 whole entry): as above

On to “[…] (HIV Pol: 464-472) (peptide; other documents disagree on this pair)”, for which, in assay [1], the Kd (as a rule, the constant that tells how readily two partners part at equilibrium) was found to be 83 µM.

Regarding “[…] (HPV Strain 16 E7 11-20) (peptide; other documents disagree on this pair)”, in assay [2], the Kd was 91 µM.

AFHHVARELGSGNLLRLTGW (modifications not checked): the Kd in assay [3] came out at 2.1 µM.

Turning to IMDQVPFSV (modifications not checked) [… (Gp100 209-217, T210M)], the dissociation constant (Kd) in assay [4] amounted to 2560 µM; in assay [5], 2570 µM.

Regarding SLLMWITQVGSGNLLRLTGW (modifications not checked), in assay [5], the Kd worked out at 2.2 µM.

For RKLFFNLRW (modifications not checked), the Kd in assay [4] is 15 µM.

Take VIYQYMDDLGSGNLLRLTGW (modifications not checked): the Kd in assay [3] was found to be 1.7 µM.

As for VLDVGDAYFSV (modifications not checked) [… (HIV Pol: 263-273)], in assay [3], the Kd worked out at 110 µM.

HWDFAWPWGSGYMDGTMSQV (modifications not checked) [HWDFAWPWgsg…]: in assay [4], the Kd was 29 µM.

As to SLFNTVATLGSGNLLRLTGW (modifications not checked), in assay [3], the Kd was 1.9 µM.

For the molecule AFHHVAREL (modifications not checked), the Kd in assay [3] came out at 84 µM.

With SIINFEKLGSGNLLRLTGW (modifications not checked) [SIINFEKLgsgNLLRLTGW], in assay [4], the dissociation constant (Kd) was determined as 1.2 µM. In addition, in assay [6], the fold increase in affinity over … (SEQ ID NO:368) is 15 fold.

Turning to NLLRLTGW (modifications not checked), in assay [4], the Kd came out at 1.85 µM.

Regarding GLYDGMEHL (modifications not checked) [… (MAGE-10: 254-262)], in assay [5], the Kd was determined as 48 µM.

As for ALFDIESKVGSGHWDFAWPW (modifications not checked), in assay [7], the dissociation constant Kd was 22 µM.

Take AIIRILQQLGSGNLLRLTGW (modifications not checked) [ALIRJ… (as printed; hybrid antigen of the Vpr: 59-67 epitope)]: the Kd in assay [3] worked out at 0.6 µM.

For AIIRILQQL (modifications not checked) [… (HIV Vpr: 59-67)], the Kd in assay [3] turned out to be 93 µM.

As for ALFDIESKV (modifications not checked) [… (Prostate Specific Membrane Antigen 771-779)], the Kd in assay [4] is 145 µM.

In the case of SIINFEKLGSGFYQLALTW (modifications not checked) [SIINFEKLgsgFYQLALTW], the dissociation constant Kd in assay [4] was found to be 1.43 µM.

ALKHRAYELGSGNLLRLTGW (modifications not checked): the dissociation constant (Kd) in assay [3] was determined as 1.1 µM.

Regarding YMLDLQPETTGSGHWDFAWPW (modifications not checked), the Kd in assay [4] turned out to be 27 µM.

In the case of SIINFEKLGSGHWDFAWPW (modifications not checked) [SIINFEKLgsgHWDFAWPW], the dissociation constant Kd in assay [4] came to 40 µM.

As to SIINFEKL (modifications not checked) [SIINFEKL (ovalbumin amino acids 257-264)], the Kd came to 279 µM in assay [4] and 235 µM in assay [3].

With YLEPGPVTVGSGNLLRLTGW (modifications not checked), in assay [5], the Kd turned out to be 2 µM.

As for ALFDIESKVGSGNLLRLTGW (modifications not checked) [PSMA P2 hybrid antigen with NLLRLTGW], in assay [4], the equilibrium dissociation constant (Kd) was 1.3 µM.

For the molecule HWDFAWPW (modifications not checked), the dissociation constant (Kd) in assay [4] is 120 µM.

As for SIINFEKLGSGRKLFFNLRW (modifications not checked) [SIINFEKLgsg…], the dissociation constant Kd in assay [4] is 7 µM.

Regarding SVYDFFVWLGSGNLLRLTGW (modifications not checked), in assay [5], the dissociation constant (Kd) was 2.9 µM.

Take HWDFAWPWGSGSIINFEKL (modifications not checked) [HWDFAWPWgsgSIINFEKL]: in assay [4], the dissociation constant Kd turned out to be 4.3 µM.

As for KASEKIFYV (modifications not checked) [… (SSX-2: 41-49)], the equilibrium dissociation constant (Kd) in assay [5] was 57 µM.

For ILKEPVHGVGSGNLLRLTGW (modifications not checked), in assay [3], the dissociation constant (Kd) worked out at 1.2 µM.

Regarding ALKHRAYEL (modifications not checked), in assay [3], the Kd was determined as 97 µM.

Consider VLDVGDAYFSVGSGNLLRLTGW (modifications not checked), for which the Kd in assay [3] worked out at 2 µM.

As to YLEPGPVTV (modifications not checked) [… (GP100: 280-288 (288V))], the Kd in assay [5] was 71 µM.

For the molecule VIYQYMDDL (modifications not checked) [… (HIV Pol: 334-342)], the Kd in assay [3] worked out at 91 µM.

Consider RGYVYQGL (modifications not checked) [RGYVYQGL (VSV nucleoprotein amino acids 52-59)], for which, in assay [3], the Kd stood at 82 µM.

Consider IMDQVPFSVGSGHWDFAWPW (modifications not checked), for which the Kd in assay [4] came out at 155 µM.

On to SLFNTVATL (modifications not checked) [… (HIV Gag/p17: 77-85 (79F))], for which the Kd in assay [3] turned out to be 35 µM.

Turning to GLYDGMEHLGSGNLLRLTGW (modifications not checked), the dissociation constant (Kd) in assay [5] worked out at 1.1 µM.

Regarding KASEKIFYVGSGNLLRLTGW (modifications not checked), in assay [5], the Kd was 1.4 µM.

As to TLGIVCPIGSGHWDFAWPW (modifications not checked) [TLGIVCPIgsgHWDFAWPW], the dissociation constant Kd in assay [4] was 9.1 µM.

As to YMDGTMSQVGSGHWDFAWPW (modifications not checked), the Kd in assay [4] is 24 µM.

For NLLRLTGWGSGSIINFEKL (modifications not checked), the Kd in assay [3] amounted to 1.6 µM.

Turning to YMDGTMSQV (modifications not checked) [… (Tyrosinase 368-376, 370D)], the equilibrium dissociation constant (Kd) worked out at 204 µM in assay [4] and 209 µM in assay [5].

Regarding SLYNTVATLGSGNLLRLTGW (modifications not checked), in assay [3], the Kd was found to be 1.8 µM.

SVYDFFVWL (modifications not checked) [… (Trp-2: 180-188)]: the equilibrium dissociation constant (Kd) in assay [5] is 81 µM.

As for YMDGTMSQVGSGNLLRLTGW (modifications not checked), the Kd in assay [4] was found to be 2.65 µM; in assay [5], 1.8 µM.

On to FYQLALTW (modifications not checked), for which the Kd in assay [4] came out at 5.9 µM.

With TLGIVCPIGSGNLLRLTGW (modifications not checked) [TLGIVCPIgsgNLLRLTGW], in assay [4], the Kd was found to be 5.2 µM.

Consider IMDQVPFSVGSGNLLRLTGW (modifications not checked), for which the dissociation constant Kd in assay [4] was 3.1 µM; in assay [5], 0.9 µM.

Consider TLGIVCPI (modifications not checked) [TLGIVCPI (HPV Strain 16 E7 86-93)], for which the Kd in assay [4] came out at 187 µM.
